The test addresses T1, human high affinity trimeric IL-2 receptor (CD25/CD122/CD132) (human, UniProt P01589 22-272; P14784 27-551; P31785 23-369).
T1 sequence 1: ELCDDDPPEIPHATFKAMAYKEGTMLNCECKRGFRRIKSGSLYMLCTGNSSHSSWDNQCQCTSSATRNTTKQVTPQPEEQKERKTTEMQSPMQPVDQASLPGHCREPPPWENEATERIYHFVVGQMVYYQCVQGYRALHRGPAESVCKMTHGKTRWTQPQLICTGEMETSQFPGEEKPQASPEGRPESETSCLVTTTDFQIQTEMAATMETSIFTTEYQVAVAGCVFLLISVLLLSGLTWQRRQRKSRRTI
T1 sequence 2: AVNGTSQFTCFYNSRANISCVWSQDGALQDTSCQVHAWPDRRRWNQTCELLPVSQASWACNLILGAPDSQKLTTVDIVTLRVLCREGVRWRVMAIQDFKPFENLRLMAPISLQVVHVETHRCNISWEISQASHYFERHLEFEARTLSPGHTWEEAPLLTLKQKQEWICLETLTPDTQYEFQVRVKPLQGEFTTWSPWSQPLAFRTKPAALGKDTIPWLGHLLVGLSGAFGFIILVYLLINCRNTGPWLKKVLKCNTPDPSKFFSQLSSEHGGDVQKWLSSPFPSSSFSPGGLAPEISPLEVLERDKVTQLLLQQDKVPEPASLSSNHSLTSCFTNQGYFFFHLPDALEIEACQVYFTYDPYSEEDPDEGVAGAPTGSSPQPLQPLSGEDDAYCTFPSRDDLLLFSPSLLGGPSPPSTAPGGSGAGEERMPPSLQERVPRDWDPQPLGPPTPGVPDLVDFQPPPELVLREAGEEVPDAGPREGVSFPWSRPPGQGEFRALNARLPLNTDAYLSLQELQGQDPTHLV
T1 sequence 3: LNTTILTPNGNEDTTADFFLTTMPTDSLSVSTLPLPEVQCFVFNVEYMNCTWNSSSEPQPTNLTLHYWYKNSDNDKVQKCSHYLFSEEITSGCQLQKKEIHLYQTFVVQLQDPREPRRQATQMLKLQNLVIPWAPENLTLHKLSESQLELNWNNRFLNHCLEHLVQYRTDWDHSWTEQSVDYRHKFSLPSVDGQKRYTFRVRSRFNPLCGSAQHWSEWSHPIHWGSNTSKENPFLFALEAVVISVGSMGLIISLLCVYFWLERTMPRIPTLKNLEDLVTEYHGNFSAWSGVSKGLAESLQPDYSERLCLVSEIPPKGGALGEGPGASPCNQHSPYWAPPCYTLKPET
In words: cell-based or functional assay.

The values below come from US20210275641A1 (SYNTHEKINE, published 2021).

Positions count from the first letter of the chain named.

B1: NEH (ligand)
cytokine: APTSSSTKKTQLQLEHLNLDLEMILNGINNYKNPKLTRMLTFKFYMPKKATELKHLQCLEEELKPLEEVLNLAQSKNFHLRPRDLISNINVIVLELKGSETTFMCEYADETATIVEFLNRWITFCHSIISTLT
Take B1: the “pSTAT5 ratio YT CD25/YT, dilution factor 2, lower table” value was determined as 0.9; the “pSTAT5 ratio YT CD25/YT, dilution factor 4, lower table” value is 1.1; the “pSTAT5 ratio YT CD25/YT, dilution factor 8, lower table” value was determined as 1.8; the “pSTAT5 ratio YT CD25/YT, dilution factor 16, lower table” value was found to be 2.6. Moreover, the “pSTAT5 ratio YT CD25/YT, dilution factor 32, lower table” value amounted to 5.1; the “pSTAT5 ratio YT CD25/YT, dilution factor 64, lower table” value worked out at 7.9; the “pSTAT5 ratio YT CD25/YT, dilution factor 128, lower table” value turned out to be 11.9.

B2: RLH (ligand)
cytokine: B1 cytokine with N18R, E22L
As for B2, the “pSTAT5 ratio YT CD25/YT, dilution factor 2, lower table” value was 0.8; the “pSTAT5 ratio YT CD25/YT, dilution factor 4, lower table” value was 1.1; the “pSTAT5 ratio YT CD25/YT, dilution factor 8, lower table” value was determined as 1.5; the “pSTAT5 ratio YT CD25/YT, dilution factor 16, lower table” value was 2.5. For the same molecule, the “pSTAT5 ratio YT CD25/YT, dilution factor 32, lower table” value was 3.3; the “pSTAT5 ratio YT CD25/YT, dilution factor 64, lower table” value was determined as 4.9; the “pSTAT5 ratio YT CD25/YT, dilution factor 128, lower table” value is 6.7.

B3: RAH (ligand)
cytokine: B1 cytokine with N18R, E22A
With B3, the “pSTAT5 ratio YT CD25/YT, dilution factor 2, lower table” value was determined as 0.6; the “pSTAT5 ratio YT CD25/YT, dilution factor 4, lower table” value came to 0.7; the “pSTAT5 ratio YT CD25/YT, dilution factor 8, lower table” value worked out at 0.8; the “pSTAT5 ratio YT CD25/YT, dilution factor 16, lower table” value stood at 1.2. Besides, the “pSTAT5 ratio YT CD25/YT, dilution factor 32, lower table” value is 1.4; the “pSTAT5 ratio YT CD25/YT, dilution factor 64, lower table” value is 2.3; the “pSTAT5 ratio YT CD25/YT, dilution factor 128, lower table” value turned out to be 3.7.

B4: RWH (ligand)
cytokine: B1 cytokine with N18R, E22W
For B4, the “pSTAT5 ratio YT CD25/YT, dilution factor 2, lower table” value is 0.8; the “pSTAT5 ratio YT CD25/YT, dilution factor 4, lower table” value was 0.8; the “pSTAT5 ratio YT CD25/YT, dilution factor 8, lower table” value is 1.2; the “pSTAT5 ratio YT CD25/YT, dilution factor 16, lower table” value came to 2. Moreover, the “pSTAT5 ratio YT CD25/YT, dilution factor 32, lower table” value was 3; the “pSTAT5 ratio YT CD25/YT, dilution factor 64, lower table” value was 5; the “pSTAT5 ratio YT CD25/YT, dilution factor 128, lower table” value amounted to 9.1.

B5: RFH (ligand)
cytokine: B1 cytokine with N18R, E22F
Consider B5, for which the “pSTAT5 ratio YT CD25/YT, dilution factor 2, lower table” value is 0.7; the “pSTAT5 ratio YT CD25/YT, dilution factor 4, lower table” value was determined as 0.8; the “pSTAT5 ratio YT CD25/YT, dilution factor 8, lower table” value was found to be 1.3; the “pSTAT5 ratio YT CD25/YT, dilution factor 16, lower table” value was 2.5. Besides, the “pSTAT5 ratio YT CD25/YT, dilution factor 32, lower table” value is 4.3; the “pSTAT5 ratio YT CD25/YT, dilution factor 64, lower table” value stood at 7.4; the “pSTAT5 ratio YT CD25/YT, dilution factor 128, lower table” value was 10.6.

B6: RKH (ligand)
cytokine: B1 cytokine with N18R, E22K
Take B6: the “pSTAT5 ratio YT CD25/YT, dilution factor 2, lower table” value came to 1; the “pSTAT5 ratio YT CD25/YT, dilution factor 4, lower table” value came out at 1.1; the “pSTAT5 ratio YT CD25/YT, dilution factor 8, lower table” value turned out to be 1.8; the “pSTAT5 ratio YT CD25/YT, dilution factor 16, lower table” value was determined as 3. Also, the “pSTAT5 ratio YT CD25/YT, dilution factor 32, lower table” value stood at 5.5; the “pSTAT5 ratio YT CD25/YT, dilution factor 64, lower table” value was determined as 8.1; the “pSTAT5 ratio YT CD25/YT, dilution factor 128, lower table” value worked out at 11.

B7: RSH (ligand)
cytokine: B1 cytokine with N18R, E22S
Regarding B7, the “pSTAT5 ratio YT CD25/YT, dilution factor 2, lower table” value came to 1; the “pSTAT5 ratio YT CD25/YT, dilution factor 4, lower table” value turned out to be 0.9; the “pSTAT5 ratio YT CD25/YT, dilution factor 8, lower table” value stood at 1.1; the “pSTAT5 ratio YT CD25/YT, dilution factor 16, lower table” value came to 1.8. Moreover, the “pSTAT5 ratio YT CD25/YT, dilution factor 32, lower table” value is 2.8; the “pSTAT5 ratio YT CD25/YT, dilution factor 64, lower table” value came to 5; the “pSTAT5 ratio YT CD25/YT, dilution factor 128, lower table” value is 6.8.

B8: DEH (ligand)
cytokine: B1 cytokine with N18D
Regarding B8, the “pSTAT5 ratio YT CD25/YT, dilution factor 2, lower table” value was determined as 0.9; the “pSTAT5 ratio YT CD25/YT, dilution factor 4, lower table” value amounted to 2; the “pSTAT5 ratio YT CD25/YT, dilution factor 8, lower table” value came to 4.2; the “pSTAT5 ratio YT CD25/YT, dilution factor 16, lower table” value worked out at 7.5. In addition, the “pSTAT5 ratio YT CD25/YT, dilution factor 32, lower table” value is 8.2; the “pSTAT5 ratio YT CD25/YT, dilution factor 64, lower table” value is 10.6; the “pSTAT5 ratio YT CD25/YT, dilution factor 128, lower table” value amounted to 9.9.

B9: RMH (ligand)
cytokine: B1 cytokine with N18R, E22M
For the molecule B9, the “pSTAT5 ratio YT CD25/YT, dilution factor 2, lower table” value came to 0.6; the “pSTAT5 ratio YT CD25/YT, dilution factor 4, lower table” value came out at 0.8; the “pSTAT5 ratio YT CD25/YT, dilution factor 8, lower table” value came out at 1.1; the “pSTAT5 ratio YT CD25/YT, dilution factor 16, lower table” value is 1.4. Moreover, the “pSTAT5 ratio YT CD25/YT, dilution factor 32, lower table” value was 2.3; the “pSTAT5 ratio YT CD25/YT, dilution factor 64, lower table” value was 3.9; the “pSTAT5 ratio YT CD25/YT, dilution factor 128, lower table” value is 5.1.

B10: RGH (ligand)
cytokine: B1 cytokine with N18R, E22G
For B10, the “pSTAT5 ratio YT CD25/YT, dilution factor 2, lower table” value was 0.6; the “pSTAT5 ratio YT CD25/YT, dilution factor 4, lower table” value worked out at 0.8; the “pSTAT5 ratio YT CD25/YT, dilution factor 8, lower table” value turned out to be 1.1; the “pSTAT5 ratio YT CD25/YT, dilution factor 16, lower table” value came to 2.1. The “pSTAT5 ratio YT CD25/YT, dilution factor 32, lower table” value amounted to 3.4; the “pSTAT5 ratio YT CD25/YT, dilution factor 64, lower table” value came out at 5.5; the “pSTAT5 ratio YT CD25/YT, dilution factor 128, lower table” value turned out to be 6.9.

B11: RIH (ligand)
cytokine: B1 cytokine with N18R, E22I
For B11, the “pSTAT5 ratio YT CD25/YT, dilution factor 2, lower table” value is 1.1; the “pSTAT5 ratio YT CD25/YT, dilution factor 4, lower table” value stood at 1.5; the “pSTAT5 ratio YT CD25/YT, dilution factor 8, lower table” value is 2.4; the “pSTAT5 ratio YT CD25/YT, dilution factor 16, lower table” value came to 3.8. Besides, the “pSTAT5 ratio YT CD25/YT, dilution factor 32, lower table” value amounted to 6; the “pSTAT5 ratio YT CD25/YT, dilution factor 64, lower table” value came to 8.4; the “pSTAT5 ratio YT CD25/YT, dilution factor 128, lower table” value was 11.5.

B12: TEH (ligand)
cytokine: B1 cytokine with N18T
On to B12, for which the “pSTAT5 ratio YT CD25/YT, dilution factor 2, lower table” value is 0.5; the “pSTAT5 ratio YT CD25/YT, dilution factor 4, lower table” value was 0.6; the “pSTAT5 ratio YT CD25/YT, dilution factor 8, lower table” value was found to be 0.9; the “pSTAT5 ratio YT CD25/YT, dilution factor 16, lower table” value was 1.3. Moreover, the “pSTAT5 ratio YT CD25/YT, dilution factor 32, lower table” value was determined as 1.9; the “pSTAT5 ratio YT CD25/YT, dilution factor 64, lower table” value amounted to 3.3; the “pSTAT5 ratio YT CD25/YT, dilution factor 128, lower table” value came out at 5.2.

B13: RVH (ligand)
cytokine: B1 cytokine with N18R, E22V
B13: the “pSTAT5 ratio YT CD25/YT, dilution factor 2, lower table” value was 0.9; the “pSTAT5 ratio YT CD25/YT, dilution factor 4, lower table” value was determined as 0.9; the “pSTAT5 ratio YT CD25/YT, dilution factor 8, lower table” value is 1.4; the “pSTAT5 ratio YT CD25/YT, dilution factor 16, lower table” value was 1.9. For the same molecule, the “pSTAT5 ratio YT CD25/YT, dilution factor 32, lower table” value was 3.3; the “pSTAT5 ratio YT CD25/YT, dilution factor 64, lower table” value is 5.3; the “pSTAT5 ratio YT CD25/YT, dilution factor 128, lower table” value came out at 8.
